Results on 167 variants are retold here after the RNAGym collection of RNA variant scans (doi:10.7554/elife.90254).

B1: LINE1-full (parent)
chain: UACGUAGGUGGUUUUCCCCUGAUAGUGCUAAGGGGGCCUGGAAGUUUGGACUGGGCAGAGCUCAACACAGCGUGGCAAAGUGGCUGUGGCUAGACUGCCUCUCUGGAUUCCUCGUCACUCAGCAGGGCAUCUCUGAGAGAAAUGCC

Variants of B1 are the subject of this data set. In words: self-cleavage, relative activity (ratio to wild type); higher = more cleavage; in vitro, sequencing; the parent is a self-cleaving ribozyme.
With U15C U81G, the self-cleavage is 1.89.
On to U15C U143A, for which the self-cleavage was 1.55.
In the case of U15C U143G, the self-cleavage came out at 2.03.
Next, U15A C113U: 0.44.
The figure for U15A A50G is 0.67.
Take U15A A50U: the self-cleavage came to 1.43.
For the variant U15C C146U, the self-cleavage was 1.57.
Next, U15G A43G: 0.5.
The figure for U15A U39G is 1.02.
The figure for U14C U109C is 1.25; for U15C A136U it is 1.41.
Regarding U15C A59G, the self-cleavage amounted to 0.1.
Next, U15C A59U: 0.94.
The figure for U14G is 0.82.
The figure for U15C U23C is 0.94.
With C16A U96C, the self-cleavage turned out to be 0.04.
Next, C16A U96G: 0.08.
Next, U15C A22G: 1.24; U15A G35U: 1.16.
Next, U15C G36C: 1.31.
For the variant U15C C133A, the self-cleavage was 1.27.
Next, U15C C133U: 1.51.
Next, U15A G60U: 0.07.
The figure for U15C G83A is 0.72; for C16A A107G it is 0.87; for U15C U26A it is 1.16.
For the variant U15C C120U, the self-cleavage came to 1.72.
The figure for U14C U20C is 1.05.
The figure for U15C A107G is 1.14; for U15G A129G it is 0.61; for C17G U143C it is 1.09.
The figure for C17U U20G is 0.57.
In the case of U15G A69G, the self-cleavage came out at 0.95.
In the case of C16U U39C, the self-cleavage was determined as 1.35.
U14C U23A: the self-cleavage was 1.62.
Next, U14C U23G: 0.93; U14C U23C: 1.4.
Next, U14C U73C: 1.62; U14C U73A: 1.31; U14C G86U: 0.08.
Next, U15C A117U: 1.58; C16U U52C: 1.47; U15C G122U: 1.16.
As for U15C G122A, the self-cleavage is 1.66.
The figure for U15G A78G is 0; for C17G it is 0.91; for C17A it is 1.27.
The figure for C17U is 1.09; for U15A A77U it is 0.98.
The figure for U15A A77G is 0.89; for C17U A124G it is 0.47; for U15C U46C it is 1.31.
With U15C U62C, the self-cleavage came to 0.09.
The figure for U15C U62A is 0.07.
Next, U15C C66U: 0.04; U15C G75A: 1.28.
The figure for U15C G74A is 1.4.
Take U15A A57G: the self-cleavage was determined as 0.68.
The figure for C16U C131U is 1.8; for U15C U102C it is 1.46.
The figure for U15A G58A is 0.09.
U15G A79G: the self-cleavage amounted to 0.
The figure for U15C A64C is 0.64; for U15C A64G it is 0.36; for U14C U91G it is 0.24.
The figure for U14C U91C is 0.79.
The figure for U15C G93U is 0.09.
As for U14C U52A, the self-cleavage amounted to 0.85.
C16A A124G: the self-cleavage is 0.4.
As for U14G A140U, the self-cleavage was found to be 0.64.
The figure for U15C U87A is 0.1; for U15C U130G it is 1.49.
Next, U15C U130A: 1.
The figure for U15C U134A is 1.04.
On to U15A U104C, for which the self-cleavage was found to be 1.06.
Next, U15C A50G: 1.11; U15C A50C: 2.42; U15G A50G: 0.18.
The figure for U15C G114C is 1.59; for U15C G114A it is 0.71.
Next, C17U A141G: 0; U15A A142G: 1.13; U15C C56U: 0.23.
Turning to U15C C56A, the self-cleavage is 0.04.
Next, U15C A57U: 0.11.
Next, U15C A57C: 0.09; U15C A57G: 1.06; U15G A94U: 0.58.
Next, U14C U85G: 0; U15A C90A: 0.02; U14C U134G: 1.23.
As for U15C A124G, the self-cleavage is 1.39.
The figure for U15C A124U is 1.32; for U15C A124C it is 0.86.
The figure for U15C U73G is 1.18; for U15A U143A it is 1.09; for C16U A142G it is 0.96.
Next, U15A U102C: 1.15; U15A U102A: 1.05; U14G A42U: 0.76.
For U14G A42G, the self-cleavage turned out to be 1.15.
The figure for U14G A77G is 0.57.
The figure for C17A U45C is 1.35; for U15C A30U it is 0.5; for U14C U39G it is 0.36.
The figure for U15C C76A is 1.2; for U15A U132C it is 0.98; for U15C C90U it is 0.04.
With C16A G32A, the self-cleavage came to 0.77.
Next, U15C A138C: 1.59; U15C A138U: 1.86.
Regarding U15C A138G, the self-cleavage was 1.49.
The figure for U15A U20G is 0.68; for U15C A67G it is 0.44.
The figure for C17A A142C is 1.9; for U15A U73A it is 1.02.
Next, C17U U29C: 0.81.
U14C U119A: the self-cleavage came out at 1.25.
Next, U15A U62C: 0; C16U A59U: 0.8; U14C U112C: 1.19.
U14C U112A: the self-cleavage is 1.17.
For the variant U15C U29A, the self-cleavage was 1.27.
The figure for U15C U29C is 1.28; for U14C U87C it is 0.26.
On to U14C U87G, for which the self-cleavage turned out to be 0.31.
Next, U14C U87A: 0.15; C16A A79G: 0.62.
The figure for U15A A136U is 0.35; for U14C G88A it is 0.09.
The figure for U14C U81A is 1.34.
For the variant C17U U26C, the self-cleavage is 0.6.
The figure for U15C A79U is 1.88; for U15A A42G it is 1.31; for U15A G80A it is 1.16.
Next, C16U A121U: 1.36.
Next, U15A A43G: 0.97.
U15A A43U: the self-cleavage was 0.87.
The figure for U15A U47C is 0.9.
The figure for C17A A42G is 1.13; for U14C U115C it is 1.31; for U15C U108C it is 1.99.
The figure for U15C U108A is 2.1.
Turning to C16U A64G, the self-cleavage turned out to be 0.09.
The figure for C17A A79U is 0.87; for U15A C146U it is 0.88; for U14C U45C it is 1.21.
The figure for U15C A77U is 1.39; for U15C A77C it is 0.77; for U15C A77G it is 1.55.
Next, U15A A117G: 1.24; C16U U112C: 1.71; U14G C118U: 1.84.
Consider C16U U104A, for which the self-cleavage is 1.12.
The figure for U15C G49A is 1.21; for C17G U52C it is 1.22.
Next, U15C C113U: 1.71.
The figure for U14C U108C is 1.44; for C17A G35A it is 0.81.
On to U15C A78G, for which the self-cleavage was 1.34.
The figure for U15C A78U is 2.44.
For U15C G82U, the self-cleavage was determined as 1.9.
Next, U15C G82A: 1.92; U15A G48C: 0.71.
The figure for U15A G72A is 0.92; for U15C U104C it is 1.86.
In the case of U15C U104A, the self-cleavage was found to be 1.05.
